Test results from publication PMC5998909.

Target: Recombinant Art v 3.0201, non-specific lipid transfer protein of Artemisia vulgaris (mugwort) pollen (Artemisia vulgaris (mugwort)) (UniProt C4MGG9)
Assay: crystal structure + other: NMR spectroscopy; recombinant non-tagged Art v 3.0201; X-ray crystallography of the non-labelled protein, NMR of the 13C/15N-labelled protein

stoichiometry N: 2
Substance: Recombinant Art v 3.0201, non-specific lipid transfer protein of Artemisia vulgaris (mugwort) pollen (from UniProt C4MGG9 1-114) (non-labelled protein)
